We go through one molecule from US20220112303A1 (ICHILOV TECH, published 2022).

In one assay the target is T1, CD24 antigen (UniProt P25063 27-59).
T1 chain: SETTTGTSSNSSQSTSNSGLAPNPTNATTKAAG
As to the kind of experiment: Biacore SPR. On the technique in general: Surface plasmon resonance follows binding to a sensor surface in real time, without labels.

The target in assay [1] is T2, CD24 on human cells (HT29, colo257, Panc-1, sh-sy5y, PBMCs) (human, UniProt P25063 27-59).
T2 construct: whole, on cells; also called CD24-positive cells
T2 chain (looked up): T1 chain
Put plainly: whole cell ELISA and flow cytometry on HT29 cells (HCT116 as low-CD24 control).

By Kd is commonly meant a measure of binding affinity in units of concentration.

B1: humanized matured NS17 anti-CD24 antibody (antibody, V domains shown)
VH: QVHLQESGPGLVKPSQTLSLTCAVSGYSISSGYTWHWIRQPPGKTVEWIGYIQYTGSTRYNPALRGRLTMSVDTSKNQFSLKLISVTAADTGVYFCARGTTASFDYWGQGTTVTVSS
VL: DIVMTQSPDSLNVSLGERATIRCRSSQSLLYSSDQKNYLTWYQQKPGQPPKLLISWASPRASGVPDRFSGSGSGTDFTLTISSLQAEDVGVYYCQQYFIYPLTFGVGTKLELK
notes: Tested as whole IgG with human CH1-CH3 and Ck, expressed from the pcDNA4-PCMV-TetO2-IgL-PCMV-TetO2-IgH vector; also called matured antibody
Molecule B1 showed a Kd with CD24 antigen of 18 nM. Moreover, in assay [1], the binding result is “binds”.
